We go through six molecules from patent US20200179511A1 (Novartis, published 2020).

The target in assay [1] is T1, human BCMA (B-cell maturation antigen) (human, UniProt Q02223 1-184).
T1 sequence (looked up): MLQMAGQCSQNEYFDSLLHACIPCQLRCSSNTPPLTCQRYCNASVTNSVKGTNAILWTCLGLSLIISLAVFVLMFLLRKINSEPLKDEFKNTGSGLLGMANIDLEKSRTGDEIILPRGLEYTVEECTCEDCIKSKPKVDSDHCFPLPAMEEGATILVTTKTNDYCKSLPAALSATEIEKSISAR
Nature of the assay: cell-based or functional assay.

Assay [2] addresses T1, human BCMA (B-cell maturation antigen). Put plainly: cell-based or functional assay. The source holds these as a separate data set.

Some results are limits rather than exact numbers.

B1: BCMA×CD3 bispecific antibody EM90 (bispecific antibody)
light: QAVVTQEPSLTVSPGGTVTLTCGSSTGAVTTSNYANWVQEKPGQAFRGLIGGTNKRAPGTPARFSGSLLGGKAALTLSGAQPEDEAEYYCALWYSNLWVFGGGTKLTVLGQPKAAPSVTLFPPSSEELQANKATLVCLISDFYPGAVTVAWKADSSPVKAGVETTTPSKQSNNKYAASSYLSLTPEQWKSHRSYSCQVTHEGSTVEKTVAPTECS
heavy 1: not shown
heavy 2: EVQLVESGGGLVKPGGSLRLSCAASGFTFSNSGMIWVRQAPGKGLEWVGHIRSKTDGGTTDYAAPVKGRFTISRDDSKNTLYLQMNSLKTEDTAVYYCTTGGSGSFDYWGQGTLVTVSSASTKGPSVFPLAPSSKSTSGGTAALGCLVKDYFPEPVTVSWNSGALTSGVHTFPAVLQSSGLYSLSSVVTVPSSSLGTQTYICNVNHKPSNTKVDKRVEPKSCDKTHTCPPCPAPEAAGGPSVFLFPPKPKDTLMISRTPEVTCVVVDVSHEDPEVKFNWYVDGVEVHNAKTKPREEQYNSTYRVVSVLTVLHQDWLNGKEYKCKVSNKALPAPIEKTISKAKGQPREPQVCTLPPSREEMTKNQVSLSCAVKGFYPSDIAVEWESNGQPENNYKTTPPVLDSDGSFFLVSKLTVDKSRWQQGNVFSCSVMHEALHNHYTQKSLSLSPGK
With B1, the “fold enhancement of RTCC EC50 upon GSI treatment” value (“fold enhancement” for short) in assay [1] was above 40 fold.

B2: BCMA×CD3 bispecific antibody EE11 (bispecific antibody)
chain 1: not shown
chain 2: EVQLVESGGGLVQPGGSLKLSCAASGFTFNTYAMNWVRQASGKGLEWVGRIRSKYNNYATYYADSVKDRFTISRDDSKSTLYLQMNSLKTEDTAVYYCVRHGNFGNSYVSWFAYWGQGTLVTVSSGGGGSGGGGSGGGGSGGGGSQAVVTQEPSLTVSPGGTVTLTCRSSTGAVTTSNYANWVQQKPGQAPRGLIGGTNKRAPWTPARFSGSLLGDKAALTLSGAQPEDEAEYFCALWYSNLWVFGGGTKLTVLGGGGSDKTHTCPPCPAPELLGGPSVFLFPPKPKDTLMISRTPEVTCVVVAVSHEDPEVKFNWYVDGVEVHNAKTKPREEQYNSTYRVVSVLTVLHQDWLNGKEYKCKVSNKALAAPIEKTISKAKGQPREPQVCTLPPSRDELTKNQVSLSCAVKGFYPSDIAVEWESNGQPENNYKTTPPVLDSDGSFFLVSKLTVDKSRWQQGNVFSCSVMHEALHNHYTQKSLSLSPGK
As for B2, the “fold enhancement” value in assay [1] was at least 10 fold.

B3: BCMA×CD3 bispecific antibody BU76 (bispecific antibody, human IgG1, kappa, N297A)
heavy: QIQLVQSGPELKKPGETVKISCKASGYTFTDYSINWVKRAPGKGLKWMGWINTETREPAYAYDFRGRFAFSLETSASTAYLQINNLKYEDTATYFCALDYSYAMDYWGQGTSVTVSSASTKGPSVFPLAPSSKSTSGGTAALGCLVKDYFPEPVTVSWNSGALTSGVHTFPAVLQSSGLYSLSSVVTVPSSSLGTQTYICNVNHKPSNTKVDKRVEPKSCDKTHTCPPCPAPELLGGPSVFLFPPKPKDTLMISRTPEVTCVVVDVSHEDPEVKFNWYVDGVEVHNAKTKPREEQYASTYRVVSVLTVLHQDWLNGKEYKCKVSNKALPAPIEKTISKAKGQPREPQVCTLPPSREEMTKNQVSLSCAVKGFYPSDIAVEWESNGQPENNYKTTPPVLDSDGSFFLVSKLTVDKSRWQQGNVFSCSVMHEALHNHYTQKSLSLSPGK
light: DIVLTQSPASLAMSLGKRATISCRASESVSVIGAHLIHWYQQKPGQPPKLLIYLASNLETGVPARFSGSGSGTDFTLTIDPVEEDDVAIYSCLQSRIFPRTFGGGTKLEIKRTVAAPSVFIFPPSDEQLKSGTASVVCLLNNFYPREAKVQWKVDNALQSGNSQESVTEQDSKDSTYSLSSTLTLSKADYEKHKVYACEVTHQGLSSPVTKSFNRGEC
chain: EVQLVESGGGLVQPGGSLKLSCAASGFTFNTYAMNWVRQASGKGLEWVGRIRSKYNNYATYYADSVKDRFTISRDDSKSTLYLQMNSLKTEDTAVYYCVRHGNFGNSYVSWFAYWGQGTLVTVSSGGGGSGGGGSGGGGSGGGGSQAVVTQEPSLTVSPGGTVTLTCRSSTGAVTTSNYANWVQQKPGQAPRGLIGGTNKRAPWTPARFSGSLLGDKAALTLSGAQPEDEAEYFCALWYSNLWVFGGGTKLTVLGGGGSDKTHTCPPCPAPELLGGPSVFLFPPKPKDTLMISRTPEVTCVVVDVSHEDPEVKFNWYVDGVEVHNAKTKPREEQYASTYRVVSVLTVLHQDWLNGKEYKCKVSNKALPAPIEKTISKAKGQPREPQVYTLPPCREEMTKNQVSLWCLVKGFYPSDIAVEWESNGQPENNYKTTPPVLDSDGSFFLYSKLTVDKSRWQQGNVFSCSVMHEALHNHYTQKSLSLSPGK
B3: the “fold enhancement” value in assay [1] was above 100 fold.

B4: BCMA×CD3 bispecific antibody ER26 (bispecific antibody, human IgG1, kappa, N297A)
heavy: QVQLVQSGAEVKKPGSSVKVSCKASGGTFSNYWMHWVRQAPGQGLEWMGATYRGHSDTYYNQKFKGRVTITADKSTSTAYMELSSLRSEDTAVYYCARGAIYNGYDVLDNWGQGTLVTVSSASTKGPSVFPLAPSSKSTSGGTAALGCLVKDYFPEPVTVSWNSGALTSGVHTFPAVLQSSGLYSLSSVVTVPSSSLGTQTYICNVNHKPSNTKVDKRVEPKSCDKTHTCPPCPAPELLGGPSVFLFPPKPKDTLMISRTPEVTCVVVAVSHEDPEVKFNWYVDGVEVHNAKTKPREEQYNSTYRVVSVLTVLHQDWLNGKEYKCKVSNKALAAPIEKTISKAKGQPREPQVCTLPPSREEMTKNQVSLSCAVKGFYPSDIAVEWESNGQPENNYKTTPPVLDSDGSFFLVSKLTVDKSRWQQGNVFSCSVMHEALHNHYTQKSLSLSPGK
light: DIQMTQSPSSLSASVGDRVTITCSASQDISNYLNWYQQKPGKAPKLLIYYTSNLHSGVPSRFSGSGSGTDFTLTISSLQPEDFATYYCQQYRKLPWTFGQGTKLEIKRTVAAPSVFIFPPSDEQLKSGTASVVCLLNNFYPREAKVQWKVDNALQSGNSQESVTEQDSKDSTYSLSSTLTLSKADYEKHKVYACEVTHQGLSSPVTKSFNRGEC
chain: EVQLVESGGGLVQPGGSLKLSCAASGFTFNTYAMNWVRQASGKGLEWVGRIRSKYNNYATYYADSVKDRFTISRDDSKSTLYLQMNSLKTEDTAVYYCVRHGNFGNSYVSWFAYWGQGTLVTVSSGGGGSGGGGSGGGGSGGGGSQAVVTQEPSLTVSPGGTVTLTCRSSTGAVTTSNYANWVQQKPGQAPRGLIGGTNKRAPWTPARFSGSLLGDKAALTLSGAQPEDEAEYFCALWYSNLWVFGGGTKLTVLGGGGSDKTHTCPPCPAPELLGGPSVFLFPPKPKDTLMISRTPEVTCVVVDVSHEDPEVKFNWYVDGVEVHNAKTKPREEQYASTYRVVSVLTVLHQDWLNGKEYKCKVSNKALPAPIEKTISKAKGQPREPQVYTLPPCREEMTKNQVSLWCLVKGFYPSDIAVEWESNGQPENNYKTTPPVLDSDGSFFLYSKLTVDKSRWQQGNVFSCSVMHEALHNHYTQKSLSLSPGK
Turning to B4, in assay [1], the “fold enhancement” value was above 100 fold.

B5: Anti-BCMA J6M0 hIgG DLE CGW117 (MMAE) conjugate (antibody, V domains shown)
VH: QVQLVQSGAEVKKPGSSVKVSCKASGGTFSNYWMHWVRQAPGQGLEWMGATYRGHSDTYYNQKFKGRVTITADKSTSTAYMELSSLRSEDTAVYYCARGAIYDGYDVLDNWGQGTLVTVSS
VL: DIQMTQSPSSLSASVGDRVTITCSASQDISNYLNWYQQKPGKAPKLLIYYTSNLHSGVPSRFSGSGSGTDFTLTISSLQPEDFATYYCQQYRKLPWTFGQGTKLEIKR
modifications: drug conjugate CGW117 (MMAE); attachment site not stated
With B5, in assay [2], the “Fold GSI Enhancement, ADC killing assay, MM1S cells” value was found to be 17.4 fold; the “Fold GSI Enhancement, ADC killing assay, U266B1 cells” value stood at 23.1 fold; the “IC50, ADC killing assay, MM1S cells, No GSI” value was 19400 pM; the “IC50, ADC killing assay, MM1S cells, with GSI LY-411575” value is 1120 pM. For the same molecule, in assay [2], the “IC50, ADC killing assay, U266B1 cells, No GSI” value is 6040 pM and the “IC50, ADC killing assay, U266B1 cells, with GSI LY-411575” value came out at 260 pM.

B6: Pfizer_CD3_H2B4_RRRR-Pfizer_BCMA_comboC29_EEEE hIgG2a_ASS (bispecific antibody)
heavy 1: EVQLLESGGGLVQPGGSLRLSCAASGFTFSSYPMSWVRQAPGKGLEWVSAIGGSGGSLPYADSVKGRFTISRDNSKNTLYLQMNSLRAEDTAVYYCARYWPMDIWGQGTLVTVSSASTKGPSVFPLAPCSRSTSESTAALGCLVKDYFPEPVTVSWNSGALTSGVHTFPAVLQSSGLYSLSSVVTVPSSNFGTQTYTCNVDHKPSNTKVDKTVERKCEVECPECPAPPVAGPSVFLFPPKPKDTLMISRTPEVTCVVVAVSHEDPEVQFNWYVDGVEVHNAKTKPREEQFNSTFRVVSVLTVVHQDWLNGKEYKCKVSNKGLPSSIEKTISKTKGQPREPQVYTLPPSREEMTKNQVSLTCEVKGFYPSDISVEWESNGQPENNYKTTPPMLDSDGSFFLYSKLTVDKSRWQQGNVFSCSVMHEALHNHYTQKSLSLSPGK
light 1: EIVLTQSPGTLSLSPGERATLSCRASQSVSSSYLAWYQQKPGQAPRLLMYDASIRATGIPDRFSGSGSGTDFTLTISRLEPEDFAVYYCQQYQSWPLTFGQGTKVEIKRTVAAPSVFIFPPSDEQLKSGTASVVCLLNNFYPREAKVQWKVDNALQSGNSQESVTEQDSKDSTYSLSSTLTLSKADYEKHKVYACEVTHQGLSSPVTKSFNRGEC
heavy 2: EVQLVESGGGLVQPGGSLRLSCAASGFTFSDYYMTWVRQAPGKGLEWVAFIRNRARGYTSDHNASVKGRFTISRDNAKNSLYLQMNSLRAEDTAVYYCARDRPSYYVLDYWGQGTTVTVSSASTKGPSVFPLAPCSRSTSESTAALGCLVKDYFPEPVTVSWNSGALTSGVHTFPAVLQSSGLYSLSSVVTVPSSNFGTQTYTCNVDHKPSNTKVDKTVERKCRVRCPRCPAPPVAGPSVFLFPPKPKDTLMISRTPEVTCVVVAVSHEDPEVQFNWYVDGVEVHNAKTKPREEQFNSTFRVVSVLTVVHQDWLNGKEYKCKVSNKGLPSSIEKTISKTKGQPREPQVYTLPPSREEMTKNQVSLTCLVKGFYPSDISVEWESNGQPENNYKTTPPMLDSDGSFFLYSRLTVDKSRWQQGNVFSCSVMHEALHNHYTQKSLSLSPGK
light 2: not shown
With B6, in assay [2], the “Fold GSI Enhancement, RTCC assay, KMS11 target cells” value came out at 48.3 fold; the “IC50, RTCC assay, KMS11 target cells, No GSI” value was 97 pM; the “IC50, RTCC assay, KMS11 target cells, with GSI LY-450139” value turned out to be 2 pM; the “IC50, RTCC assay, KMS11 target cells, with GSI PF-3084014” value worked out at 2 pM. Further, in assay [2], the “IC50, RTCC assay, KMS11 target cells, with GSI PF-5212362” value turned out to be 2 pM.
